Experimental data reported in patent publication US20240117018A1.

What was measured:
Assay in all cases: cell-based or functional assay
[1] = target: HIV-1 Env of pseudovirus CNE8 (HIV-1)
[2] = target: HIV-1 Env of pseudovirus 6535.3 (HIV-1)
[3] = target: HIV-1 Env of pseudovirus ZM135M.PL10a (HIV-1)
[4] = target: HIV-1 Env of pseudovirus T250-4 (HIV-1)
[5] = target: HIV-1 Env of pseudovirus Du156.12 (HIV-1)
[6] = target: HIV-1 Env of pseudovirus Ce2010_F5 (HIV-1)
[7] = target: HIV-1 Env of pseudovirus 7030102001E5(Rev-) (HIV-1)
[8] = target: HIV-1 Env of pseudovirus 6240_08_TA5_4622 (HIV-1)
[9] = target: HIV-1 Env of pseudovirus Q461.e2 (HIV-1)
[10] = target: HIV-1 Env of pseudovirus HIV-001428-2.42 (HIV-1)
[11] = target: HIV-1 Env of pseudovirus 3415.v1.c1 (HIV-1)
[12] = target: HIV-1 Env of pseudovirus Q23.17 (HIV-1)
[13] = target: HIV-1 Env of pseudovirus Q259.d2.17 (HIV-1)
[14] = target: HIV-1 Env of pseudovirus 249M B10 (HIV-1)
[15] = target: HIV-1 Env of pseudovirus 0260.v5.c36 (HIV-1)
[16] = target: HIV-1 Env of pseudovirus TRJO4551.58 (HIV-1)
[17] = target: HIV-1 Env of pseudovirus RHPA4259.7 (HIV-1)
[18] = target: HIV-1 Env of pseudovirus Ce0682_E4 (HIV-1)
[19] = target: HIV-1 Env of pseudovirus CNE17 (HIV-1)
[20] = target: HIV-1 Env of pseudovirus 62357_14_D3_4589 (HIV-1)
[21] = target: HIV-1 Env of pseudovirus CNE53 (HIV-1)
[22] = target: HIV-1 Env of pseudovirus ZM214M.PL15 (HIV-1)
[23] = target: HIV-1 Env of pseudovirus AC10.0.29 (HIV-1)
[24] = target: HIV-1 Env of pseudovirus HIV-16055-2.3 (HIV-1)
[25] = target: HIV-1 Env of pseudovirus TRO.11 (HIV-1)
[26] = target: HIV-1 Env of pseudovirus Q769.d22 (HIV-1)
[27] = target: HIV-1 Env of pseudovirus 1012_11_TC21_3257 (HIV-1)
[28] = target: HIV-1 Env of pseudovirus CNE20 (HIV-1)
[29] = target: HIV-1 Env of pseudovirus Du172.17 (HIV-1)
[30] = target: HIV-1 Env of pseudovirus ZM247v1(Rev-) (HIV-1)
[31] = target: HIV-1 Env of pseudovirus ZM233M.PB6 (HIV-1)
[32] = target: HIV-1 Env of pseudovirus Ce2060_G9 (HIV-1)
[33] = target: HIV-1 Env of pseudovirus SC422661.8 (HIV-1)
[34] = target: HIV-1 Env of pseudovirus ZM53M.PB12 (HIV-1)
[35] = target: HIV-1 Env of pseudovirus ZM249M.PL1 (HIV-1)
[36] = target: HIV-1 Env of pseudovirus WEAU_d15_410_787 (HIV-1)
[37] = target: HIV-1 Env of pseudovirus 1006_11_C3_1601 (HIV-1)

N49P7.1 (antibody)
IC50 [1]: 0.048 µg/mL
IC80 [1]: 0.167 µg/mL
MPI [1]: 100
IC50 [2]: 0.224 µg/mL
IC80 [2]: 0.715 µg/mL
MPI [2]: 100
IC50 [3]: 0.314 µg/mL
IC80 [3]: 1.11 µg/mL
MPI [3]: 99
IC50 [4]: 2.27 µg/mL
IC80 [4]: 24.7 µg/mL
MPI [4]: 89
IC50 [5]: 0.045 µg/mL
IC80 [5]: 0.131 µg/mL
MPI [5]: 100
IC50 [6]: 0.055 µg/mL
IC80 [6]: 0.208 µg/mL
MPI [6]: 100
IC50 [7]: 0.11 µg/mL
IC80 [7]: 0.498 µg/mL
MPI [7]: 100
IC50 [8]: 0.509 µg/mL
IC80 [8]: 1.95 µg/mL
MPI [8]: 100
IC50 [9]: 0.329 µg/mL
IC80 [9]: 1.14 µg/mL
MPI [9]: 100
IC50 [10]: 0.009 µg/mL
IC80 [10]: 0.029 µg/mL
MPI [10]: 100
IC50 [11]: 0.191 µg/mL
IC80 [11]: 0.647 µg/mL
MPI [11]: 100
IC50 [12]: 0.077 µg/mL
IC80 [12]: 0.208 µg/mL
MPI [12]: 100
IC50 [13]: 0.505 µg/mL
IC80 [13]: 4.23 µg/mL
MPI [13]: 97
IC50 [14]: 0.053 µg/mL
IC80 [14]: 0.225 µg/mL
MPI [14]: 100
IC50 [15]: 0.497 µg/mL
IC80 [15]: 1.51 µg/mL
MPI [15]: 100
IC50 [16]: 0.156 µg/mL
IC80 [16]: 0.529 µg/mL
MPI [16]: 100
IC50 [17]: 0.108 µg/mL
IC80 [17]: 0.292 µg/mL
MPI [17]: 100
IC50 [18]: 0.026 µg/mL
IC80 [18]: 0.099 µg/mL
MPI [18]: 100
IC50 [19]: 0.254 µg/mL
IC80 [19]: 0.86 µg/mL
MPI [19]: 100
IC50 [20]: 0.028 µg/mL
IC80 [20]: 0.15 µg/mL
MPI [20]: 100
IC50 [21]: 0.066 µg/mL
IC80 [21]: 0.228 µg/mL
MPI [21]: 100
IC50 [22]: 0.257 µg/mL
IC80 [22]: 0.853 µg/mL
MPI [22]: 100
IC50 [23]: 5.31 µg/mL
IC80 [23]: 46.8 µg/mL
MPI [23]: 85
IC50 [24]: 0.088 µg/mL
IC80 [24]: 0.318 µg/mL
MPI [24]: 100
IC50 [25]: 0.055 µg/mL
IC80 [25]: 0.191 µg/mL
MPI [25]: 100
IC50 [26]: 0.044 µg/mL
IC80 [26]: 0.163 µg/mL
MPI [26]: 100
IC50 [27]: 0.063 µg/mL
IC80 [27]: 0.176 µg/mL
MPI [27]: 100
IC50 [28]: 0.079 µg/mL
IC80 [28]: 0.224 µg/mL
MPI [28]: 100
IC50 [29]: 0.185 µg/mL
IC80 [29]: 0.748 µg/mL
MPI [29]: 100
IC50 [30]: 0.038 µg/mL
IC80 [30]: 0.176 µg/mL
MPI [30]: 100
IC50 [31]: 0.355 µg/mL
IC80 [31]: 1.25 µg/mL
MPI [31]: 100
IC50 [32]: 0.473 µg/mL
IC80 [32]: 2.41 µg/mL
MPI [32]: 100
IC50 [33]: 0.125 µg/mL
IC80 [33]: 0.417 µg/mL
MPI [33]: 100
IC50 [34]: 0.287 µg/mL
IC80 [34]: 1 µg/mL
MPI [34]: 100
IC50 [35]: 0.071 µg/mL
IC80 [35]: 0.239 µg/mL
MPI [35]: 100
IC50 [36]: 0.058 µg/mL
IC80 [36]: 0.142 µg/mL
MPI [36]: 100
IC50 [37]: 0.061 µg/mL
IC80 [37]: 0.193 µg/mL
MPI [37]: 100

VRC07 (antibody)
IC50 [2]: 0.169 µg/mL
IC80 [2]: 0.517 µg/mL
IC50 [3]: 0.104 µg/mL
IC80 [3]: 0.383 µg/mL
IC50 [5]: 0.041 µg/mL
IC80 [5]: 0.149 µg/mL
IC50 [6]: 0.131 µg/mL
IC80 [6]: 0.48 µg/mL
IC50 [7]: 0.205 µg/mL
IC80 [7]: 0.911 µg/mL
IC50 [8]: 0.448 µg/mL
IC80 [8]: 1.54 µg/mL
IC50 [9]: 0.282 µg/mL
IC80 [9]: 1.02 µg/mL
IC50 [10]: 0.004 µg/mL
IC80 [10]: 0.016 µg/mL
IC50 [11]: 0.036 µg/mL
IC80 [11]: 0.152 µg/mL
IC50 [12]: 0.081 µg/mL
IC80 [12]: 0.236 µg/mL
IC50 [13]: 0.024 µg/mL
IC80 [13]: 0.1 µg/mL
IC50 [14]: 0.052 µg/mL
IC80 [14]: 0.204 µg/mL
IC50 [15]: 0.448 µg/mL
IC80 [15]: 1.62 µg/mL
IC50 [16]: 0.032 µg/mL
IC80 [16]: 0.125 µg/mL
IC50 [17]: 0.017 µg/mL
IC80 [17]: 0.048 µg/mL
IC50 [18]: 0.039 µg/mL
IC80 [18]: 0.239 µg/mL
IC50 [19]: 0.136 µg/mL
IC80 [19]: 0.651 µg/mL
IC50 [20]: 0.075 µg/mL
IC80 [20]: 0.256 µg/mL
IC50 [21]: 0.031 µg/mL
IC80 [21]: 0.086 µg/mL
IC50 [22]: 0.198 µg/mL
IC80 [22]: 1.42 µg/mL
IC50 [23]: 0.282 µg/mL
IC80 [23]: 0.986 µg/mL
IC50 [24]: 0.025 µg/mL
IC80 [24]: 0.135 µg/mL
IC50 [25]: 0.132 µg/mL
IC80 [25]: 0.456 µg/mL
IC50 [26]: 0.018 µg/mL
IC80 [26]: 0.087 µg/mL
IC50 [27]: 0.014 µg/mL
IC80 [27]: 0.045 µg/mL
IC50 [28]: 0.06 µg/mL
IC80 [28]: 0.129 µg/mL
IC50 [29]: 0.796 µg/mL
IC80 [29]: 3.66 µg/mL
IC50 [30]: 0.041 µg/mL
IC80 [30]: 0.189 µg/mL
IC50 [31]: 0.152 µg/mL
IC80 [31]: 0.625 µg/mL
IC50 [32]: 0.085 µg/mL
IC80 [32]: 0.422 µg/mL
IC50 [33]: 0.054 µg/mL
IC80 [33]: 0.175 µg/mL
IC50 [34]: 0.275 µg/mL
IC80 [34]: 1.29 µg/mL
IC50 [35]: 0.041 µg/mL
IC80 [35]: 0.145 µg/mL
IC50 [36]: 0.034 µg/mL
IC80 [36]: 0.115 µg/mL
IC50 [37]: 0.015 µg/mL
IC80 [37]: 0.046 µg/mL
